{"source": "patent US20120276102A1", "about": "(Pfizer, published 2012)", "key": {"[1]": {"target": "T1, human IL-21R expressed on cells (human, UniProt Q9HBE5 20-538)", "T1 sequence (Q9HBE5 20-538 limits assumed)": "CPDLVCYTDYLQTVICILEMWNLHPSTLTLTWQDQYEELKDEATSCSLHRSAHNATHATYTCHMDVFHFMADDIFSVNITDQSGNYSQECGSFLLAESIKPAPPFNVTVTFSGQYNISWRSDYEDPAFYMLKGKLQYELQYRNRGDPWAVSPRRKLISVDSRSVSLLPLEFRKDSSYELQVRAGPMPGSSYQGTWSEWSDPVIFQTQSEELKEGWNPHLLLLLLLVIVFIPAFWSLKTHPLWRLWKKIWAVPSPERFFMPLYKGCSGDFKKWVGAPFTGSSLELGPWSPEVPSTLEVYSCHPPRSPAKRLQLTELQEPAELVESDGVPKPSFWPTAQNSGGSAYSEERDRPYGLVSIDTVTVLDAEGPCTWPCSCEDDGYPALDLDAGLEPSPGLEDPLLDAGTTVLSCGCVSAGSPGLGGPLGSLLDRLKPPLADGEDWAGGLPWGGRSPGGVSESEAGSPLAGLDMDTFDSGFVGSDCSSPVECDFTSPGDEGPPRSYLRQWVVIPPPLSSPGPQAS", "experiment": "cell-based or functional assay"}, "[2]": {"target": "murine IL-21R expressed on cells (murine, UniProt Q9JHX3 20-529)", "experiment": "cell-based or functional assay"}, "[3]": {"target": "T1, human IL-21R expressed on cells", "experiment": "cell-based or functional assay", "remark": "listed apart in the source"}, "[4]": {"target": "T2, human IL-21R extracellular domain His-Flag fusion protein (human, UniProt Q9HBE5 20-232)", "T2 construct": "Biotinylated in the HTRF screen; also called hIL-21R-H/F; human IL-21R-H/F", "T2 sequence (Q9HBE5 20-232)": "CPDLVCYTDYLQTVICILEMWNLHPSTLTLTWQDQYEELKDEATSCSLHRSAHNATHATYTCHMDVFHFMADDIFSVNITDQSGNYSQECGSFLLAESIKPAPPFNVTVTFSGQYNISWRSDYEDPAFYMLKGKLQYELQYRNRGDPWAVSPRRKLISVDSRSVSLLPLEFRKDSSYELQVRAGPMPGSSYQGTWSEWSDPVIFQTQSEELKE", "experiment": "SPR, Ab captured on anti-human IgG", "procedure": "(§1) The kinetics of binding of anti-IL-21R antibodies to human and murine IL-21R-H/F was tested on a BIACORE™ surface plasmon resonance instrument. Anti-human IgG antibodies (Invitrogen Corporation) were immobilized onto a research-grade carboxy-methyl-dextran chip (CM5) using standard amine coupling. The surface was activated with EDC/NHS for 7 min at a flow of 20 μl/min. The first flow cell was used as a reference surface to correct for bulk refractive index, matrix effects, and nonspecific binding. The anti-human-Fc antibody was diluted to 20 μg/ml in 10 mM sodium acetate buffer (pH 5.0), and 2950-3405 resonance units (RU) were captured on each of the four flow cells. Remaining activated groups were blocked with 1.0 M ethanolamine-HCl (pH 8.5).\n(§2) Anti-IL-21R antibodies were diluted to 0.1-0.2 μg/ml in HBS/EP buffer supplemented with 0.2% bovine serum albumin and loaded onto the BIACORE™ chip. Following a brief washing period, solutions of 0-100 nM human IL-21R-H/F or 10-500 nM murine IL-21R-H/F were injected over the chip at a flow rate of 50 μl/min. The association phase was run for 3 min for human and murine IL-21R kinetics, and the dissociation phase was monitored for 15 min for hIL-21R and for 5 min for mIL-21R, followed by two 10 μl injections and one 30 μl injection of glycine (pH 1.5), to regenerate a fully active capturing surface. All binding experiments were done at 25° C. in HBS/EP buffer, and the sample rack was kept at 15° C. Blank and buffer effects were subtracted for each sensorgram using double referencing."}, "[5]": {"target": "T3, murine IL-21R extracellular domain His-Flag fusion protein (murine, UniProt Q9JHX3 20-237)", "T3 construct": "Biotinylated in the ELISAs; also called mIL-21R-H/F; murine IL-21R-H/F", "experiment": "SPR, Ab captured on anti-human IgG", "procedure": "as §1, §2"}, "[6]": {"target": "T2, human IL-21R extracellular domain …", "experiment": "SPR, Ab captured on anti-human IgG, replicate experiment", "procedure": "as §1, §2"}, "[7]": {"target": "T4, rat IL-21R expressed on cells (rat)", "T4 construct": "whole, on cells", "experiment": "cell-based ELISA on CHO cells transiently expressing rat IL-21R; HRP anti-human IgG, A450", "outline": "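Binding read by TMB colour after HRP anti-human IgG (1 hr, RT), stopped with H₂SO₄. Before that, IgG-containing conditioned media, serially diluted in 5% milk/PBS/CaMg, were applied 1 hr at RT to CHO-PA-Dukx cells transfected 48 hr earlier.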"}, "[8]": {"target": "T5, cynomolgus monkey IL-21R expressed on cells (cynomolgus monkey, UniProt G7Q0S8 41-559)", "T5 construct": "whole, on cells", "experiment": "cell-based ELISA on CHO cells transiently expressing cynomolgus monkey IL-21R; HRP anti-human IgG, A450"}, "[9]": {"target": "T6, human complement component C1q (human, UniProt P02745 23-245; P02746 28-253; P02747 29-245)", "T6 construct": "Native C1q in diluted human serum", "T6 sequence (P02745 23-245, chain 1 of 3)": "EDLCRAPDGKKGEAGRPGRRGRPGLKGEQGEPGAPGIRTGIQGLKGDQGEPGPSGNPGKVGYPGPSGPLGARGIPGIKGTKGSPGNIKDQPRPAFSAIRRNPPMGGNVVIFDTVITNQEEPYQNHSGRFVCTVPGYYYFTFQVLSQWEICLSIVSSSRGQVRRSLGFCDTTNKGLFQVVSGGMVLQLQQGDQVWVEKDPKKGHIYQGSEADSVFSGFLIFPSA", "T6 sequence (P02746 28-253, chain 2 of 3)": "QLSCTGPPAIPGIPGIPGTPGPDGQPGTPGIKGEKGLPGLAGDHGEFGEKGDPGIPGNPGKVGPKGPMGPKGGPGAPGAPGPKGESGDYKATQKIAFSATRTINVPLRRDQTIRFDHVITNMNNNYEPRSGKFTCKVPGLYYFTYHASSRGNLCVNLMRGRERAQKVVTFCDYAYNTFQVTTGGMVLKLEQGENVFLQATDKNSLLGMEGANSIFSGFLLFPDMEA", "T6 sequence (P02747 29-245, chain 3 of 3)": "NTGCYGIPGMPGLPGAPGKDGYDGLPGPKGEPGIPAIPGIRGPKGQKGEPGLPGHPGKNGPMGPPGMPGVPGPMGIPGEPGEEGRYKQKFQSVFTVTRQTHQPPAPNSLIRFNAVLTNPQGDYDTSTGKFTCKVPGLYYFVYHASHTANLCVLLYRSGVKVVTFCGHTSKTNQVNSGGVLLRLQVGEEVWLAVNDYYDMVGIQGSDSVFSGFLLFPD", "experiment": "C1q ELISA: antibody coated on the plate, human serum 1:50, chicken anti-human C1q and HRP anti-chicken IgY", "procedure": "In order to determine whether cell-surface binding by anti-IL-21R antibodies is likely to lead to complement-dependent cytotoxicity (CDC), the antibodies were tested for their ability to bind to the complement component C1q in an ELISA. […] Diluted antibodies (100 μl) were coated onto a COSTAR® high-binding ELISA plate (Corning Life Sciences, Lowell, Mass.) overnight at 4° C. Plates were washed 3× with PBS/Tween-20 and blocked with 200 μl of blocking buffer (0.1 M NaPO₄, 0.1 M NaCl, 0.1% gelatin, 0.01% Tween) for 1 hr at RT. Human serum previously determined to contain C1q (Quidel, San Diego, Calif.) was diluted 1:50 in PBS. After 1 hr of blocking, plates were washed and 100 μl of diluted serum was added to each well and incubated for 2 hr at RT on a shaker. Following three washes, 100 μl A of 0.1 μg/ml chicken polyclonal anti-human C1q antibody (AbCam, Cambridge, Mass.) was added to each well and incubated for 1 hr at RT. Plates were again washed and incubated with 100 μA of a rabbit polyclonal antibody to chicken Ig-Y—HRP diluted 1:4000 (AbCam) for 1 hr at RT. Plates were washed and developed with TMB for 5 min, followed by 50 μA of 1 M H₂SO₄ to stop the reaction, and then read at 450 nm."}}, "data": [{"binder": "AbS (antibody, V domains shown, CDR3 graft, residue limits derived as for m29; also called VHP/VL6; VHPTM/VL6) VH: QVQLQESGPGLVKPSETLSLTCAVSGYSISSGYYWGWIRQPPGKGLEWIGSISHTGNTYYNPPLKSRVTISVDTSKNQFSLKLSSVTAADTAVYYCARGGGISRPEYWGQGTLVTVSS VL: SSELTQDPAVSVALGQTVRITCQGDSLRTYYASWYQQKPGQAPVLVIYGKHKRPSGIPDRFSGSSSGNTASLTITGAQAEDEADYYCMSRSIWGNPHVLFGGGTQLTVL", "values": [{"measurement": "Human IL-21R-BaF3 Neutralization IC50", "setting": "[1]", "result": 0.68, "unit": "nM"}, {"measurement": "Human IL-21R-TF1 Neutralization IC50", "setting": "[1]", "result": 6.67, "unit": "nM"}, {"measurement": "Murine IL-21R-BaF3 Neutralization IC50", "setting": "[2]", "result": 0.04, "unit": "nM"}, {"measurement": "Neutralization of B cell proliferation IC50", "setting": "[3]", "result": 0.44, "unit": "nM"}, {"measurement": "Kd", "setting": "[4]", "result": 2.02, "unit": "nM"}, {"measurement": "koff", "setting": "[4]", "result": 0.000291, "unit": "s⁻¹"}, {"measurement": "kon", "setting": "[4]", "result": 144000, "unit": "M⁻¹ s⁻¹"}, {"measurement": "Kd", "setting": "[5]", "result": 16.7, "unit": "nM"}, {"measurement": "koff", "setting": "[5]", "result": 0.00332, "unit": "s⁻¹"}, {"measurement": "kon", "setting": "[5]", "result": 199000, "unit": "M⁻¹ s⁻¹"}, {"measurement": "Kd", "setting": "[6]", "result": 1.51, "unit": "nM"}, {"measurement": "koff", "setting": "[6]", "result": 0.000305, "unit": "s⁻¹"}, {"measurement": "kon", "setting": "[6]", "result": 202000, "unit": "M⁻¹ s⁻¹"}, {"measurement": "EC50 (read off the curve)", "setting": "[7]", "result": "~1", "unit": "nM"}, {"measurement": "EC50 (read off the curve)", "setting": "[8]", "result": "~0.5", "unit": "nM"}, {"measurement": "binding result", "setting": "[9]", "result": "no binding"}]}]}
